Key:
[1] = system: motor activity of gastrointestinal tracts; experiment: Motor activity of gastrointestinal tracts in the post-feed period in dogs sutured with strain gauge transducers; assay type: in vivo
Description: An experiment was performed as described below in order to examine the action of glicentin on a motility of gastrointestinal tracts.
Six hybrid dogs weighing 16-18 kg were sutured with strain gauge transducers (manufactured by Star Medical, F121S) at a site of the gastric antrum 4 cm from the pyloric ring, a site of the duodenum for the main incurrent pancreatic duct and a site of the jejunum 10 cm from the Treitz's ligamentum, respectively, to measure the contractile force intensity of the circular muscle. Recovery period for the suture was 2 weeks.
Three of the 6 dogs were intravenously given over 1 hour 15 ml of a physiological saline solution in which 400 pmol of glicentin had been dissolved per kg of bodyweight. The remaining three received an aqueous physiological solution containing no glicentin in the same way as above as a control for comparison. The dogs were fed on 15 g of a solid diet (SD®, manufactured by Oriental Yeast K.K.) and 15 g of Vitaone® (manufactured by Nihon Pet Food K.K. and Kyodo Shiryo K.K.) per kg of bodyweight simultaneously with the intravenous administration.
Then, the motor activity of gastrointestinal tracts and length of the post-feed period were measured. Intensity of the contraction in the post-feed period was integrated for the two-hour measurements and evaluated in comparison with the mean level of the signal peak in phase 3 motor activity of the gastrointestinal tracts in hunger and taken as a motor index.

[2] = system: male BALB/c mice; experiment: Intraperitoneal administration to mice, observation of appearance; assay type: in vivo; conditions: 10 mg/kg intraperitoneally, male BALB/c mice (6 weeks age)
[3] = 400 pmol/kg i.v. over 1 hour, post-feed contraction integrated over two hours relative to phase 3 peak in hunger, average ± standard error
[4] = 400 pmol/kg i.v. over 1 hour, versus control

B1: Glicentin: One of enteroglucagons, a peptide comprising 69 amino acid residues; human glicentin (SEQ ID NO: 1) prepared by genetic engineering (protein)
chain: RSLQDTEEKSRSFSASQADPLSDPDQMNEDKRHSQGTFTSDYSKYLDSRRAQDFVQWLMNTKRNRNNIA
- Length of post-feed period ([1]; 400 pmol/kg glicentin intravenously over 1 hour, fed simultaneously, average ± standard error): 13.6 ± 1.0 h
- Motor index, duodenum [1, 3]: 0.675 ± 0.4
- Motor index, gastric antrum [1, 3]: 0.878 ± 0.1
- Motor index, jejunum [1, 3]: 1.087 ± 0.2
- Influence upon the length of the post-feed period (in words) [1, 4]: no influence upon the length of the post-feed period
- Post-feed motility in the vestibulum of stomach (in words) [1, 4]: inhibited the post-feed motility in the vestibulum of stomach
- Change in appearance [2]: no change in appearance is observed

Reference: patent US5576295A, “Agent for suppressing the motor activity of gastrointestinal tracts” (Nisshin Flour Milling Co., Ltd., priority 1993, dated 1996)
